Results taken from paper PMC8486322 (Cell, 2019).

Target: eRF3 fused with maltose binding protein (MBP-eRF3) ( (the printed NM_002094.3 is …, UniProt P15170-3 1-637))
Experiment: pull-down

B1: SFL fused with glutathione S-transferase (GST-SFL) (natural protein)
chain: not shown
binding result: binds
